Measurements reported in article PMC7195491.

B1: Dpr10 (Defective proboscis extension response 10), extracellular region [Drosophila melanogaster] / DIP-α (Dpr Interacting Protein alpha), extracellular region [Drosophila melanogaster] (parent)
chain 1: MLTLWTALFCCLTGLAVCYQRQSVSNNNHNNAEAKPTHAPPSHYPHGHKWNEPYFDLTMPRNITSLVGKSAYLGCRVKHLGNKTVAWIRHRDLHILTVGTYTYTTDQRFQTSYHRDIDEWTLQIKWAQQRDAGVYECQISTQPVRSYSVNLNIVVPTATILGGPDLYVDKGSTINLTCIIKFSPEPPTHIFWYHQDKVLSEETSGGRLKFKTIKSEETKSILLIYDADLLHSGKYSCYPSNTEIASIRVHVLQGERPEAMQTNAAPAAVALACWSCHFGQATQAVRVISTMVAALVLLEACSSLLLQSGGGGGCPGGGSPAGGMPTRVREIREKPLTNSLLDPKIPSTTSAERVNNGSRNAR
chain 2: MPVSAKRLLRNFQFTSCDRNGKMLIHLLLIVSLLEAIGAFQPEFVESISNVSVAVGRDATFTCHVRHLGGYRVGWLKADTKAIQAIHENVITHNPRVTVSHLDQNTWNLHIKAVSEEDRGGYMCQLNTDPMKSQIGFLDVVIPPDFISEDTSSDVIVPEGSSVRLTCRARGYPEPIVTWRREDGNEIVLKDNVGTKTLAPSFRGEVLKLSKISRNEMGSYLCIASNGVPPSVSKRISLSIHFHPVIQVPNQLVGAPLGTDVQIECHVEASPKSINYWIKDTGEMIVTSGKYHVQESSQSMYETKMSMIVRKFQKDDVGSYRCIAKNSLGEVDSSIRLYEIPGPNRNKNPLNGGGKGGGAGGSLDADANDILKQKQQVKVTYQPEDEELQYGSVEDFEAEGGEGGGLTPLSPHVYYTSGNKPATHKPGNSGGNQHLHQQHHHHHHHNNNNNNQQHSGGPGGGPTGGDAGSLGGEMGGITRKPPPYYGGNTEVRGPIDNNEMSSGSGDSRLCRGHHLPILLLPFARLILVRSWHCRHTFLMGLSQACLPGLLLSLL

Variants of: B1
Test: SPR
Conditions: with DIP-α (Dpr Interacting Protein alpha), 25 °C, 10 mM Tris-HCl, pH 7.2, 150 mM NaCl, 1 mM EDTA, 1 mg mL−1 BSA, 0.01% (v/v) Tween-20, analyte 81 to 0.012 μM, three-fold dilution series, parent: 0

| ddG [kcal/mol] | Variant |
| --- | --- |
| > 3.5 | chain 1 L93G Q142E V144K |
